Measurements as given in PMC10179534, “Maize Transcription Factor ZmHsf28 Positively Regulates Plant Drought Tolerance”.

B1: pZmAOS1 HSE probe (dsDNA)
DNA 1: GTCAAGTCGGGTCTAGAAACTCATAGGCA
DNA 2: TGCCTATGAGTTTCTAGACCCGACTTGAC
B2: pZmZEP1 HSE probe (dsDNA)
DNA 1: GGGTGTTTTTCTGGAATCATGCA
DNA 2: TGCATGATTCCAGAAAAACACCC
B3: pZmAAO4 HSE probe (dsDNA)
DNA 1: TCTTAATCTCCTAGAAAAATACGGT
DNA 2: ACCGTATTTTTCTAGGAGATTAAGA
B4: pZmCAT1 HSE probe (dsDNA)
DNA 1: GAAGATGAGCTTCTAGGACTGTTAGA
DNA 2: TCTAACAGTCCTAGAAGCTCATCTTC
B5: pZmRD21 HSE probe (dsDNA)
DNA 1: TATCGGTTTTTTTAGAAGATATTATGGC
DNA 2: GCCATAATATCTTCTAAAAAAACCGATA

The binders below were run against ZmHsf28 (Zea mays, UniProt K7V9Y4 1-267) (assay: EMSA; Chemiluminescence EMSA kit (Beyotime); buffer, salt, pH and temperature not stated; unlabeled probes as competitors). Settings: protein: recombinant; tags: His (pET28a, Ni-NTA); chain copies: 3; blunt.
Chain of ZmHsf28 (K7V9Y4 entry or part of it): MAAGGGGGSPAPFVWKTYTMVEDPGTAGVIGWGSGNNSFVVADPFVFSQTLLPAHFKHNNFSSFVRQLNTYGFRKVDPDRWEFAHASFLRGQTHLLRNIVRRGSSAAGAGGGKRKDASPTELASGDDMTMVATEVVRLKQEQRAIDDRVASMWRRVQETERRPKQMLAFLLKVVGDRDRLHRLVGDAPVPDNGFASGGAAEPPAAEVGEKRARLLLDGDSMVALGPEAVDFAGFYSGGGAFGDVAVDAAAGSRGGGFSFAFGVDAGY

Binding result, binds:
B1
B2
B3
B4
B5
